According to PMC3477312, “Characterization of Vibrio cholerae Hfq Provides Novel Insights into the Role of the Hfq C-Terminal Region” (Journal of Molecular Biology, 2012):

Assays:
[1] = molecular target: VcNTDEcCTR (Vibrio cholerae | Escherichia coli) (UniProt Q9KV11); test: SDS-PAGE stability assay; 1 ug protein in loading buffer with 1% SDS heated at 95 °C for 0 to 300 s, 10% SDS-PAGE, hexamer and monomer bands quantified; hexamer to monomers
SEC = molecular target: the molecule itself; test: SEC
[2] = molecular target: the molecule itself; test: SDS-PAGE stability assay; 1 ug protein in loading buffer with 1% SDS heated at 95 °C for 0 to 300 s, 10% SDS-PAGE, hexamer and monomer bands quantified; hexamer to monomers

VcNTDEcCTR (from UniProt Q9KV11 1-72; P0A6X3 73-102)
half-life of hexamer in 1% SDS at 95 °C [1]: 39.2 s

B1: Vibrio cholerae Hfq (natural protein)
chain: MAKGQSLQDPFLNALRRERIPVSIYLVNGIKLQGQIESFDQFVILLKNTVNQMVYKHAISTVVPARPVSHHSGDRPASDRPAEKSEE
notes: also called VcHfq; full-length VcHfq
stoichiometry N (SEC): 6 | half-life of hexamer in 1% SDS at 95 °C [2]: 33.2 ± 1.3 s

B2: VcHfq72 (domain or fragment)
chain: MAKGQSLQDPFLNALRRERIPVSIYLVNGIKLQGQIESFDQFVILLKNTVNQMVYKHAISTVVPARPVSHHS
notes: also called VcHfq NTD; NTD alone of VcHfq
half-life of hexamer in 1% SDS at 95 °C [2]: 32.1 ± 1.9 s
